The record followed here is patent publication US20160024208A1 (Regeneron, published 2016).

For experiment [1], the target named is T1, Native Nav1.7 (3-3) peptide, human (human).
T1 construct: Synthetic peptide, unbiotinylated; also called Human Nav1.7 3-3 native; Nav1.7 3-3 native peptide
T1 peptide: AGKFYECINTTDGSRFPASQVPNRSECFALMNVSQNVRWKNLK
The experiment in a line: SPR, captured antibody, peptide analyte. Put shortly: (§1)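 Biacore SPR: antibody captured via Fc on anti-Fc surface, Nav1.7 loop peptides injected as analyte at several concentrations. Double-referenced sensorgrams globally fitted to a 1:1 model; KD = kd/ka, t1/2 = ln2/kd.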
A general note: SPR reads the build-up and loss of mass on a sensor chip optically.

The target in experiment [2] is T2, C-Term Biotin Nav1.7 (3-3) peptide, mouse (mouse, C-terminal biotin attached via a G4S linker).
T2 construct: Synthetic peptide; also called Mouse Nav1.7 3-3 C-term biotin
T2 peptide: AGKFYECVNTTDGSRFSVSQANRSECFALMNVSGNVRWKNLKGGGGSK
The experiment in a line: SPR, captured antibody, peptide analyte. Put shortly:
as §1

For experiment [3], the target named is T3, C-Term Biotin Nav1.7 (3-3) peptide, rat (rat, C-terminal biotin attached via a G4S linker).
T3 construct: Synthetic peptide; also called Rat Nav1.7 3-3 C-term biotin
T3 peptide: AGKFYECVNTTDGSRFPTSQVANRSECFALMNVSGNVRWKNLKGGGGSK
Description: SPR, captured antibody, peptide analyte. Put shortly:
as §1

In experiment [4] the target is T4, C-term Biotin Nav1.7 (3-1) peptide, human (human, not fully specified; C-terminal biotin attached via a G4S linker).
T4 construct: Synthetic peptide; also called Human Nav1.7 3-1 C-term biotin
T4 peptide: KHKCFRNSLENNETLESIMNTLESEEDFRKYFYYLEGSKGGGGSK
Description: SPR, captured biotin-peptide, antibody analyte.

In experiment [5] the target is T5, C-term Biotin Nav1.7 (3-3) peptide, human (human, C-terminal biotin attached via a G4S linker).
T5 construct: Synthetic peptide; also called Human Nav1.7 3-3 C-term biotin
T5 peptide: T3 peptide with V8I, T18A, A22P, G35Q
Description: SPR, captured biotin-peptide, antibody analyte.

The target of experiment [6] is T6, full-length human Nav1.7 fused at its N-terminus to GFP, expressed in HEK293 cells (human, UniProt Q15858 1-1988).
T6 construct: Voltage-gated sodium channel alpha subunit; In the Western blot it stood as denatured cell lysate; also called hNav 1.7-GFP-HEK293; Nav 1.7-GFP-HEK293; not shown: green fluorescent protein (GFP) at the N-terminus
The experiment in a line: flow cytometry on Nav1.7-GFP-HEK293, antibody 3.3 nM. The method, then: The specificity of binding of anti-Naᵥ 1.7 human antibodies to full-length Naᵥ 1.7 expressed in HEK293 cells was determined by peptide competition experiments using flow cytometry.
HEK293 cells stably-transfected with full-length Naᵥ 1.7 fused at its N-terminus to GFP (Naᵥ 1.7-GFP-HEK293) were used for this study. Antibody binding to the transfected cells overexpressing Naᵥ 1.7 was compared to binding in the presence of excess peptide and to binding to the parental HEK293 cell line. To perform the binding experiments, adherent cells were collected using 1 mM EDTA in PBS, washed and re-suspended in cold PBS containing 5% FBS. For each binding experiment the anti-Naᵥ 1.7 antibody at a final concentration of 3.3 nM (in PBS/5% FBS) was added to cells either directly or after incubating for 10 min on ice with a 1000-fold molar excess (3.3 uM final concentration in PBS/5% FBS) of synthetic peptide with sequence corresponding to the loop specificity of the antibody. The antibodies designated as H4H391P, H4H443B, H4H448B, and H1M797N were preincubated as described above with a synthetic peptide corresponding to EC loop 3-1 (amino acid residues 269-338 of SEQ ID NO: 670), whereas the antibodies designated as H4H468P and H1 M852N were preincubated with a synthetic peptide corresponding to EC loop 3-3 (amino acid residues 1333-1382 of SEQ ID NO: 670). The antibody or antibody-peptide mixture was then allowed to incubate with cells for 20 min on ice, followed by addition of 500 uL of cold PBS/5% FBS. Cells were collected by centrifugation, resuspended in 500 uL of cold PBS/5% FBS, and then secondary antibody matched to the antibody isotype (either anti-human-Fc conjugated to Cyanine 5 or anti-mouse-Fc conjugated to allophyococyanin) was added. Binding was detected on the flow cytometry instrument and analyzed as percent binding using the instrument software. For FACS analysis appropriate gating was applied so that only healthy, live cells were counted. Background staining of secondary antibodies alone to Naᵥ 1.7-GFP-HEK293 cells was tested and recorded for all samples, and results ranged between 1-2% binding.
In general terms: Flow cytometry measures light scatter and fluorescence of single cells or particles in a stream.

Experiment [7] deals with T6, full-length human Nav1.7 fused at its …. The experiment in a line: flow cytometry; % stained hNav1.7-GFP-HEK293 minus parental HEK293. Put shortly:
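Antibody (1-13 nM) incubated 20 min on ice with stably transfected hNav1.7-GFP-HEK293 or parental HEK293 cells in PBS/5% FBS, then 1.7 nM Cy5- or APC-labelled anti-Fc secondary for 20 min on ice. Flow cytometry of live-gated cells; specific binding = % stained transfected minus % stained parental.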

For experiment [8] the target is unchanged. Description: cell-based or functional assay.
Experiment [9] concerns the target T7, N-Term Biotin Nav1.7 (3-1) peptide, mouse (mouse, not fully specified; N-terminal biotin attached via a G4S linker).
T7 construct: Synthetic peptide; also called Mouse Nav1.7 3-1 N-term biotin
T7 peptide: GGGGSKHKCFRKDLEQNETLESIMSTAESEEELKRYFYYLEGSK
Description: ELISA on coated peptide. The method, then: (§2) Anti-Naᵥ 1.7 antibodies were tested for their ability to bind to the Naᵥ 1.7 peptides. The various peptides were coated overnight onto 96-well Nunc Immunosorp plates at a concentration of 4 μg/mL in PBS, followed by blocking for 1 hour in a suitable blocking agent. For biotinylated peptides, avidin was first coated on Nunc Immunosorp plates at 2 μg/mL in PBS overnight, followed by blocking as described, and the plate was then coated with biotinylated peptides at a concentration of 0.4 μg/mL and incubated for 1 hour at room temperature. Purified anti-Naᵥ 1.7 antibodies were diluted to a final concentration of 0.1 μg/mL and 1.0 μg/mL and added to the wells of the coated microtiter plates followed by incubation for 1 hour at room temperature. Bound antibodies were detected with horseradish peroxidase (HRP) conjugated anti-mouse or anti-human IgG (Jackson Immuno Research Lab, West Grove, Pa.) depending on the antibody species and developed by colorimetric response using tetramethylbenzidine (TMB) substrate (BD Biosciences). Absorbance was read at OD₄₅₀ on a plate reader for 0.1 second.
(§3) Values in Table 11 represent absolute binding ranges (at OD450) to plate-coated peptides for antibodies added at 1 μg/ml as follows: OD450<0.2: −; 0.2<OD450<1: +; 1<OD450<2: ++; 2<OD450<4: +++; NT: Not Tested.
In general terms: ELISA stands for enzyme-linked immunosorbent assay.

Experiment [10] concerns the target T8, Native Nav1.7 (3-1) peptide, rat (rat).
T8 construct: Synthetic peptide; also called Rat Nav1.7 3-1 native
T8 peptide: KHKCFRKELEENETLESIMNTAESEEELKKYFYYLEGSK
The experiment in a line: ELISA on coated peptide. The method, then: as §2, §3

Experiment [11] concerns the target T9, Native Nav1.7 (3-1) peptide, human (human).
T9 construct: Synthetic peptide (Celtek), unbiotinylated; also called Human Nav1.7 3-1 native; Nav1.7 3-1 native peptide
T9 peptide: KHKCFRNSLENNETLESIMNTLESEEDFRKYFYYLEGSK
The experiment in a line: SPR, captured antibody, peptide analyte. Put shortly: as §1

The target in experiment [12] is T10, N-Term Biotin Nav1.7 (3-1) peptide, mulatta (mulatta (monkey), not fully specified; N-terminal biotin attached via a G4S linker).
T10 construct: Synthetic peptide; also called Mulatta Nav1.7 3-1 N-term biotin; monkey
T10 peptide: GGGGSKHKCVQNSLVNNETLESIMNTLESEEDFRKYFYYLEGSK
Description: SPR, captured antibody, peptide analyte. Put shortly: as §1

Experiment [13] has as its target T7, N-Term Biotin Nav1.7 (3-1) peptide, …. The experiment in a line: SPR, captured antibody, peptide analyte. Put shortly: as §1
In experiment [14] the target is T8, Native Nav1.7 (3-1) peptide, rat. Description: SPR, captured antibody, peptide analyte. Put shortly: as §1
Experiment [15] deals with T10, N-Term Biotin Nav1.7 (3-1) peptide, …. Description: ELISA on coated peptide, antibody 1 ug/ml, OD450 grade. Put shortly:
(§4)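 Peptides coated at 4 μg/mL in PBS, or biotinylated peptides captured at 0.4 μg/mL on avidin (2 μg/mL). Antibodies at 0.1 and 1.0 μg/mL, 1 h at room temperature, detected with HRP anti-mouse or anti-human IgG and TMB at OD450. Scores at 1 μg/ml: <0.2 −; 0.2–1 +; 1–2 ++; 2–4 +++.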

In experiment [16] the target is T11, N-Term Biotin-Nav1.7 (3-1) peptide, human (human, not fully specified; N-terminal biotin attached via a G4S linker).
T11 construct: ELISA peptide
T11 peptide: T10 peptide with V10F, Q11R, V15E
Described as above. Put shortly:
as §4

Experiment [17] concerns the target T12, Native Nav1.7 (Paddle) peptide, human (human).
T12 construct: Synthetic peptide, unbiotinylated; also called Human Nav1.7 paddle native
T12 peptide: TEFVNLGNVSALRT
Description: SPR, captured antibody, peptide analyte. Put shortly: as §1

In experiment [18] the target is T13, N-term Biotin Nav1.7 (Paddle) peptide, human (human, not fully specified).
T13 construct: ELISA peptide
T13 peptide: Biotin-GGGGSTEFVNLGNVSALRT
Description: ELISA on coated peptide, antibody 1 ug/ml, OD450 grade. Put shortly:
as §4

Experiment [19] deals with T14, N-Term Biotin Nav1.7 (Paddle) peptide, mulatta (mulatta (monkey), not fully specified).
T14 construct: ELISA peptide
T14 peptide: Biotin-GGGGSTEFVDLGNVSALRT
The experiment is described as above. Put shortly:
as §4

Broadly, the Kd is a measure of binding affinity in units of concentration.

Substitutions are numbered along the chain they refer to. Ends that are not written are not given here. * marks the point of attachment. Biotin = O=C1N[C@H]2[C@H](CS[C@H]2CCCCC(=O)*)N1 Bounds are passed on as bounds.

B1: H4H468P (antibody, V domains shown)
VH: QVQLVESGGGVVQPGRSLRLSCTASGFTFSVYGIHWVRQAPGKGLEWVAVIWYDGSNKYYTDSVKGRFTISRDNSKNTLYLQMNSLRAEDTALYYCAREGDLSSSSGSGGYHYVVDVWGQGTTVTVSS
VL: AIQMTQSPSSLSASVGDRVTITCRASQDIRNDLGWYQQKPGNAPKLLIYSTSSLQSGVPSRFSGSGSGTDFTLTISSLQPEDFATYYCLQDYNYPLTFGGGTKVEIK
notes: also called REGN1064
Consider B1, for which the equilibrium dissociation constant (Kd) worked out at 630 nM in experiment [1] and 47.2 nM in [5]. Also, the figures for the t1/2 in experiment [1] and in experiment [5] were 0.31 min and 1.3 min, respectively. The binding result in experiment [2], in experiment [3] and in [4] was “no binding” in each case. Further, the “% Binding Nav1.7 (Stable Line)” value in experiment [6] is 89.5%. In addition, the “% Binding Nav1.7” value in [7] amounted to 71.8%.

B2: H2M799N (antibody, V domains shown)
VH: EVQLVESGGGLVQPGGSLRLSCAASGFTFSIFWMNWVRQAPGKGLEWVAKIKQDGSEKYYVDSMKGRFTISRDNVKNSLYLQMNSLRAEDTAVYYCARGVWGSYRYTSSGLDVWGQGTTVTVSS
VL: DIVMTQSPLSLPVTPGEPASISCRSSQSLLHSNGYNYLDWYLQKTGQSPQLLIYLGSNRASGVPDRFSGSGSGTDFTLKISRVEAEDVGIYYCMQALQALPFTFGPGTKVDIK
notes: Hybridoma-derived
As to B2, the “Current blocking (Average % inhibition), IonWorks Quattro, 223 nM antibody” value in experiment [8] amounted to 6%. The OD450 in experiment [9] is less than 0.2 od; in experiment [10], less than 0.2 od; in experiment [15], 2 to 4 od; in experiment [16] it was 2 to 4 od. Also, the figures for the dissociation constant (Kd) in experiment [11], in experiment [12] and in [4] were 9.93 nM, 4.14 nM and 0.815 nM, respectively. Also, the t1/2 in experiment [11] turned out to be 17.5 min; in experiment [12], 27.4 min; in experiment [4] it was 106 min. Further, the binding result in experiment [13] and in experiment [14] was “no binding” throughout. Further, the “% Binding Nav1.7” value in experiment [7] turned out to be 5.7%.

B3: H1M683N (antibody, V domains shown)
VH: QVQLVESGGGVVQPGRSLSLSCAASGFTFSNYGMHWVRQAPGKGLEWVAAISYDGNTKYYVDSVKGRFTISRDNSKNTLYLQMNSLRGEDMAVYYCVGARPGYDHYGMDVWGQGTTVTVSS
VL: DIQLTQSPSFLSTSVGDRVTITCWASQGISSYLAWYQQKPGKAPNLLIYTASTLQSGVPSRFSGSGSGTEFTLTISSLQPEDFATYYCQQLNSYPYTFGQGTKLEIK
notes: Loop specificity 2-1 (paddle)
In [17], B3 showed a Kd of 9.4 nM and a t1/2 of 18 min. Also, the binding result in experiment [4] is “no binding”. The molecule also yielded an OD450 in experiment [18] of 1 to 2 od. In addition, the OD450 in [19] lay in the range of 0.2 to 1 od.

B4: H4H471P (antibody, V domains shown)
VH: QVQLVESGGGLVKPGGSLRLSCAASGVTFSDYYMTWIRQAPGKGLEWVSYISTDGRTIYYADSVKGRFTISRDNAKNSLYLQMNNLRAEDTAVYYCARGVDSDDYEDFYSYYDMDVWGQGTTVTVSS
VL: DIQMTQSPSSLSASVGDRVTITCRASQGISNYLAWFQQKPGKAPKSLIYAASSLQGGVPSRFSGSGSGTDFTLTISSLQPEDFATYYCQQYNSYPLTFGGGTKVEIK
In the case of B4, the Kd in experiment [1] was found to be 16 nM; in experiment [5], 0.138 nM. In addition, the t1/2 in [1] was 17 min; in [5], 743 min. In addition, the binding result in [3] and in experiment [4] was “no binding” in each case.
